This note sets out measurements from publication PMC10464304, “Refined read‐out: The hUHRF1 Tandem‐Tudor domain prefers binding to histone H3 tails containing K4me1 in the context of H3K9me2/3” (Protein Science : A Publication of the Protein Society, 2023).

No end group written: not given here. Me3 = trimethyl (trimethyl-lysine)

What all share (assay): fluorescence polarisation; fluorescence anisotropy titration; 100 nM FITC-labeled peptide in the cuvette, protein added stepwise; 23°C; 100 mM KCl, 20 mM HEPES pH 7.5, 10% v/v glycerol
Holding throughout (details): both partners purified
On the technique in general: Fluorescence polarisation rises when a labelled molecule tumbles more slowly, as on binding a larger partner.

Assay [1] concerns the target T1, GST-hUHRF1-TTD (126-280) R207Q (human, UniProt Q96T88 126-280, R207Q).
T1 construct: Tandem Tudor domain (TTD) of human UHRF1, UniProt Q96T88, residues 126-280; source: E. coli, purified (Glutathione Agarose 4B); not shown: GST, N-terminal, kept
T1 sequence (looked up): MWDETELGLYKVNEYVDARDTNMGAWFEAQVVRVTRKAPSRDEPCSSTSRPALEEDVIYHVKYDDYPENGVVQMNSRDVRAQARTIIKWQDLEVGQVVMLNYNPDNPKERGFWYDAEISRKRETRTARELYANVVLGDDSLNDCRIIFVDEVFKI

Assay [2] concerns the target T2, GST-fused Tandem-Tudor domain (TTD) of human UHRF1, residues 126-280, wild type (human, UniProt Q96T88 126-280).
T2 construct: Tandem Tudor domain (TTD) of human UHRF1, UniProt Q96T88, residues 126-280; borders as in Rothbart et al., 2012; also called hUHRF1-TTD; UHRF1-TTD; source: E. coli, purified (Glutathione Agarose 4B); not shown: GST, N-terminal, kept
T2 sequence (looked up): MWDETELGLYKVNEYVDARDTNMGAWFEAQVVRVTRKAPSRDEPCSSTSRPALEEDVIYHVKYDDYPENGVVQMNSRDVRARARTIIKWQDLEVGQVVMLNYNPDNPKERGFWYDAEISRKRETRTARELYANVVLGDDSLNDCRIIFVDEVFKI

Assay [3] has as its target T3, GST-hUHRF1-TTD (126-280) D142E (human, UniProt Q96T88 126-280, D142E).
T3 construct: Tandem Tudor domain (TTD) of human UHRF1, UniProt Q96T88, residues 126-280; source: E. coli, purified (Glutathione Agarose 4B); not shown: GST, N-terminal, kept
T3 sequence (looked up): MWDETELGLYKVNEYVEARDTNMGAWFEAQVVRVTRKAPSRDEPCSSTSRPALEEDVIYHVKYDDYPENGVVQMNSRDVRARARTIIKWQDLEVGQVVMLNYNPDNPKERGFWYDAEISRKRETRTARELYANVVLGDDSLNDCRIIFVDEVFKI

Assay [4] addresses T4, GST-hUHRF1-TTD (126-280) R207E (human, UniProt Q96T88 126-280, R207E).
T4 construct: Tandem Tudor domain (TTD) of human UHRF1, UniProt Q96T88, residues 126-280; also called TTD R207E; source: E. coli, purified (Glutathione Agarose 4B); not shown: GST, N-terminal, kept
T4 sequence (looked up): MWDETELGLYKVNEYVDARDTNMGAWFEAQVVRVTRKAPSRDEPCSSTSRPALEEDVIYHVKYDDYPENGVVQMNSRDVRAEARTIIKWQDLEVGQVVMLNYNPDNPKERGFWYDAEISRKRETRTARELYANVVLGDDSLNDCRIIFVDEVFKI

For assay [5], the target named is T5, GST-hUHRF1-TTD (126-280) E153A (human, UniProt Q96T88 126-280, E153A).
T5 construct: Tandem Tudor domain (TTD) of human UHRF1, UniProt Q96T88, residues 126-280; also called E153A TTD mutant; source: E. coli, purified (Glutathione Agarose 4B); not shown: GST, N-terminal, kept
T5 sequence (looked up): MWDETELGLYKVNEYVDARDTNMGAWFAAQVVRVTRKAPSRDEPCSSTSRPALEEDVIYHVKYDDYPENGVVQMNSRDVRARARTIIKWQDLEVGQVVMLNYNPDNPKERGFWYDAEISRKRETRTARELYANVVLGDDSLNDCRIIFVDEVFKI

Assay [6] concerns the target T6, GST-hUHRF1-TTD (126-280) D142N (human, UniProt Q96T88 126-280, D142N).
T6 construct: Tandem Tudor domain (TTD) of human UHRF1, UniProt Q96T88, residues 126-280; source: E. coli, purified (Glutathione Agarose 4B); not shown: GST, N-terminal, kept
T6 sequence (looked up): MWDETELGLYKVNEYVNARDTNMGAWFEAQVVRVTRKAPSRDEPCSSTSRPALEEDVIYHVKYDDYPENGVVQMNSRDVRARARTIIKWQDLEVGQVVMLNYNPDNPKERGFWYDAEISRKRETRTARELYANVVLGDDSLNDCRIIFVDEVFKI

The target in assay [7] is T7, GST-hUHRF1-TTD (126-280) D142A (human, UniProt Q96T88 126-280, D142A).
T7 construct: Tandem Tudor domain (TTD) of human UHRF1, UniProt Q96T88, residues 126-280; also called TTD D142A mutant; source: E. coli, purified (Glutathione Agarose 4B); not shown: GST, N-terminal, kept
T7 sequence (looked up): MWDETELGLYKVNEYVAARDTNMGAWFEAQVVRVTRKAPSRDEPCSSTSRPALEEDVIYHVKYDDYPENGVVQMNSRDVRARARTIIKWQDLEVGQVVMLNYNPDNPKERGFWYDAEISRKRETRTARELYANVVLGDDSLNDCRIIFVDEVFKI

In assay [8] the target is T8, GST-hUHRF1-TTD (126-280) R207A (human, UniProt Q96T88 126-280, R207A).
T8 construct: Tandem Tudor domain (TTD) of human UHRF1, UniProt Q96T88, residues 126-280; source: E. coli, purified (Glutathione Agarose 4B); not shown: GST, N-terminal, kept
T8 sequence (looked up): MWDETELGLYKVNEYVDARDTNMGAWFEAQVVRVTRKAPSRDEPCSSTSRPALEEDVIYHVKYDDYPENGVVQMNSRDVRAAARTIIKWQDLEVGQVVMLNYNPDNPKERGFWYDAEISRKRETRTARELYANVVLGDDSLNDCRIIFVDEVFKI

Assay [9] has as its target T9, GST-hUHRF1-TTD (126-280) R207L (human, UniProt Q96T88 126-280, R207L).
T9 construct: Tandem Tudor domain (TTD) of human UHRF1, UniProt Q96T88, residues 126-280; source: E. coli, purified (Glutathione Agarose 4B); not shown: GST, N-terminal, kept
T9 sequence (looked up): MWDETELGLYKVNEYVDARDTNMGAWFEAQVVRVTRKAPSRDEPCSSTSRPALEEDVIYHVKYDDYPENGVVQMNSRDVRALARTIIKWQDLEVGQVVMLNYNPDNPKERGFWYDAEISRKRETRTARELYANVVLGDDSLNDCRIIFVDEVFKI

The target in assay [10] is T10, GST-hUHRF1-TTD (126-280) F278A (human, UniProt Q96T88 126-280, F278A).
T10 construct: Tandem Tudor domain (TTD) of human UHRF1, UniProt Q96T88, residues 126-280; source: E. coli, purified (Glutathione Agarose 4B); not shown: GST, N-terminal, kept
T10 sequence (looked up): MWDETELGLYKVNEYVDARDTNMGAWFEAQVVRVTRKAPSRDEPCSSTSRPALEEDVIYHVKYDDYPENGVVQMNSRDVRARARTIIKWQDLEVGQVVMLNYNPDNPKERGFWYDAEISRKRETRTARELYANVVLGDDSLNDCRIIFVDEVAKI

The target of assay [11] is T11, GST-hUHRF1-TTD (126-280) E153Q (human, UniProt Q96T88 126-280, E153Q).
T11 construct: Tandem Tudor domain (TTD) of human UHRF1, UniProt Q96T88, residues 126-280; source: E. coli, purified (Glutathione Agarose 4B); not shown: GST, N-terminal, kept
T11 sequence (looked up): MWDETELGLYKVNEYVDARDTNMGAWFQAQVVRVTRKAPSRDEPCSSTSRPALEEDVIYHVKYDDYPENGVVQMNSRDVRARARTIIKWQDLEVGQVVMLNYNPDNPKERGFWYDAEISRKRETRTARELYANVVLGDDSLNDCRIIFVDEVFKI

The target in assay [12] is T12, GST-hUHRF1-TTD (126-280) E153D (human, UniProt Q96T88 126-280, E153D).
T12 construct: Tandem Tudor domain (TTD) of human UHRF1, UniProt Q96T88, residues 126-280; also called TTD E153D; source: E. coli, purified (Glutathione Agarose 4B); not shown: GST, N-terminal, kept
T12 sequence (looked up): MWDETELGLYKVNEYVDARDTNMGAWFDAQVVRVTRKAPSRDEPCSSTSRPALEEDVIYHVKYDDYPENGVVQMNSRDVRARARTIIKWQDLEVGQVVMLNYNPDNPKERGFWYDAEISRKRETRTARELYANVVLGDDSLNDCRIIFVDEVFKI

The target of assay [13] is T13, GST-hUHRF1-TTD (126-280) R207H (human, UniProt Q96T88 126-280, R207H).
T13 construct: Tandem Tudor domain (TTD) of human UHRF1, UniProt Q96T88, residues 126-280; source: E. coli, purified (Glutathione Agarose 4B); not shown: GST, N-terminal, kept
T13 sequence (looked up): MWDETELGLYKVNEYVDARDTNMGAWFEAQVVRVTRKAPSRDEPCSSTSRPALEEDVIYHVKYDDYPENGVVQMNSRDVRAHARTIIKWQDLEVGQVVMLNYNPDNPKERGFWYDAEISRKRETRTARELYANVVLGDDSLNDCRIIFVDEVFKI

Assay [14] has as its target T14, GST-hUHRF1-TTD (126-280) M224A (human, UniProt Q96T88 126-280, M224A).
T14 construct: Tandem Tudor domain (TTD) of human UHRF1, UniProt Q96T88, residues 126-280; source: E. coli, purified (Glutathione Agarose 4B); not shown: GST, N-terminal, kept
T14 sequence (looked up): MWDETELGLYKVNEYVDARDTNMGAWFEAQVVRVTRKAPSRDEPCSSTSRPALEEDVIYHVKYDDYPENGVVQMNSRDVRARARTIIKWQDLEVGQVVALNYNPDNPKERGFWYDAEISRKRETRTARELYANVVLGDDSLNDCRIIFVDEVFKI

B1: FITC-labeled H3(1-19) peptide with K4me1 and K9me3 (peptide, UniProt P68431 2-20, looked up)
peptide: ARTK(Me)QTARK(Me3)STGGKAPRKQ
modifications: also: FITC-labeled (position not given here)
notes: histone H3 N-terminal tail, residues 1-19; also called H3K4me1-K9me3; H3 K4me1-K9me3
One may read the Kd as the equilibrium constant for the complex coming apart. Read a low Kd as a tighter complex. As for B1, the Kd in assay [1] amounted to 390 nM; in assay [2] it was 240 nM; in assay [3], 580 nM; in [4] it was 270 nM; in assay [5] it was 2 nM; in assay [6], 2 nM. For the same molecule, the Kd in assay [7] came out at 2700 nM; in assay [8], 370 nM; in [9], 440 nM; in [10] it was 3900 nM; in assay [11], 250 nM; in assay [12], 50 nM. Further, the dissociation constant (Kd) in assay [13] is 460 nM; in assay [14], 430 nM.

B2: FITC-labeled H3(1-19) peptide with K9me3 (peptide, UniProt P68431 2-20, looked up)
peptide: ARTKQTARKSTGGKAPRKQ
modifications: K9me3 (trimethyl-lysine at 9); FITC-labeled
notes: histone H3 N-terminal tail, residues 1-19; also called H3K9me3; H3 K9me3
In the case of B2, the Kd in [8] and in assay [9] was 900 nM in each case.
